Measured values: US11298402B2, “Lysosomal degradation of lipids and proteins and method of use thereof” (University of Ottawa, priority 2015, dated 2022)

B1: RILP: Rab7 effector, retrograde motor adaptor, overexpressed GFP-tagged from plasmid (protein, UniProt Q96NA2 1-401, looked up)
Rab-interacting lysosomal …: MEPRRAAPGVPGWGSREAAGSASAAELVYHLAGALGTELQDLARRFGPEAAAGLVPLVVRALELLEQAAVGPAPDSLQVSAQPAEQELRRLREENERLRRELRAGPQEERALLRQLKEVTDRQRDELRAHNRDLRQRGQETEALQEQLQRLLLVNAELRHKLAAMQTQLRAAQDRERERQQPGEAATPQAKERARGQAGRPGHQHGQEPEWATAGAGAPGNPEDPAEAAQQLGRPSEAGQCRFSREEFEQILQERNELKAKVFLLKEELAYFQRELLTDHRVPGLLLEAMKVAVRKQRKKIKAKMLGTPEEAESSEDEAGPWILLSDDKGDHPPPPESKIQSFFGLWYRGKAESSEDETSSPAPSKLGGEEEAQPQSPAPDPPCSALHEHLCLGASAAPEA
modifications: GFP tag
B2: FYCO1: Rab7 effector, anterograde motor adaptor, overexpressed GFP-tagged from plasmid (protein, UniProt Q9BQS8 2-1478, looked up)
FYVE and coiled-coil …: ASTNAESQLQRIIRDLQDAVTELSKEFQEAGEPITDDSTSLHKFSYKLEYLLQFDQKEKATLLGNKKDYWDYFCACLAKVKGANDGIRFVKSISELRTSLGKGRAFIRYSLVHQRLADTLQQCFMNTKVTSDWYYARSPFLQPKLSSDIVGQLYELTEVQFDLASRGFDLDAAWPTFARRTLTTGSSAYLWKPPSRSSSMSSLVSSYLQTQEMVSNFDLNSPLNNEALEGFDEMRLELDQLEVREKQLRERMQQLDRENQELRAAVSQQGEQLQTERERGRTAAEDNVRLTCLVAELQKQWEVTQATQNTVKELQTCLQGLELGAAEKEEDYHTALRRLESMLQPLAQELEATRDSLDKKNQHLASFPGWLAMAQQKADTASDTKGRQEPIPSDAAQEMQELGEKLQALERERTKVEEVNRQQSAQLEQLVKELQLKEDARASLERLVKEMAPLQEELSGKGQEADQLWRRLQELLAHTSSWEEELAELRREKKQQQEEKELLEQEVRSLTRQLQFLETQLAQVSQHVSDLEEQKKQLIQDKDHLSQQVGMLERLAGPPGPELPVAGEKNEALVPVNSSLQEAWGKPEEEQRGLQEAQLDDTKVQEGSQEEELRQANRELEKELQNVVGRNQLLEGKLQALQADYQALQQRESAIQGSLASLEAEQASIRHLGDQMEASLLAVRKAKEAMKAQMAEKEAILQSKEGECQQLREEVEQCQQLAEARHRELRALESQCQQQTQLIEVLTAEKGQQGVGPPTDNEARELAAQLALSQAQLEVHQGEVQRLQAQVVDLQAKMRAALDDQDKVQSQLSMAEAVLREHKTLVQQLKEQNEALNRAHVQELLQCSEREGALQEERADEAQQREEELRALQEELSQAKCSSEEAQLEHAELQEQLHRANTDTAELGIQVCALTVEKERVEEALACAVQELQDAKEAASREREGLERQVAGLQQEKESLQEKLKAAKAAAGSLPGLQAQLAQAEQRAQSLQEAAHQELNTLKFQLSAEIMDYQSRLKNAGEECKSLRGQLEEQGRQLQAAEEAVEKLKATQADMGEKLSCTSNHLAECQAAMLRKDKEGAALREDLERTQKELEKATTKIQEYYNKLCQEVTNRERNDQKMLADLDDLNRTKKYLEERLIELLRDKDALWQKSDALEFQQKLSAEERWLGDTEANHCLDCKREFSWMVRRHHCRICGRIFCYYCCNNYVLSKHGGKKERCCRACFQKLSEGPGSPDSSGSGTSQGEPSPALSPASPGPQATGGQGANTDYRPPDDAVFDIITDEELCQIQESGSSLPETPTETDSLDPNAAEQDTTSTSLTPEDTEDMPVGQDSEICLLKSGELMIKVPLTVDEIASFGEGSRELFVRSSTYSLIPITVAEAGLTISWVFSSDPKSISFSVVFQEAEDTPLDQCKVLIPTTRCNSHKENIQGQLKVRTPGIYMLIFDNTFSRFVSKKVFYHLTVDRPVIYDGSDFL
modifications: GFP tag
B3: Vps41: HOPS subunit overexpressed from plasmid (GFP-tagged) (protein)
chain: MAEAEEQETESLEESTDESEEESEEEPKLKYERLSNGVTEILQKDAASCMTVHDKFLALGTHYGKVYLLDVQGNITQKFDVSPVKINQISLDESGEHMGVCSEDGKLQVFGLYSGEEFHETFDCPIKIVAVHPQFVRSSCKQFVTGGKKLLLFERTWMNRWKSSVLHEGEGNIRSVKWRGHLIAWANNMGVKIFDITSKQRITNVPRDDISLRPDMYPCSLCWKDAVTLIIGWGTSIKICSVKERHASEMRDLPSRYVEIVSQFETEFYISGLAPLCDQLVVLSYVKEVSEKTEREYCARPRLDIIQPLPETCEEISSDALTVRGFQENECRDYHLEYSEGESLFYVVSPRDVVVAKERDQDDHIDWLLEKKKYEEALMAAEISHRNIKRHKILEIGLAYVNHLVERGEYDMAARKCQKILGKNASLWEYEVYKFKEIGQLKAISPYLPRGDPVLKPLIYEMILHEFLESDYEGFATLIREWPGDLYNNSVIVQAVRDHLKKDSQNKTLLKTLAELYTYDKNYGNALEIYLTLRHKDVFQLIHKHNLFSSIKDKIVLLMDFDSEKAVDMLLDNEDKISIKKVVEELEDRPELQHVYLHKLFKRDHHKGQRYHEKQISLYAEYDRPNLLPFLRDSTHCPLEKALEICQQRNFVEETVYLLSRMGNSRSALKMIMEELHDVDKAIEFAKEQDDGELWEDLILYSIDKPPFITGLLNNIGTHVDPILLIHRIKEGMEIPNLRDSLVKILQDYNLQILLREGCKKILVADSLSLLKKMHRTQMKGVLVDEENICESCLSPILPTDAAKPFSVVVFHCRHMFHKECLPMPSLNAPAQYCNICSAKNRGPGSAILEMKK

Key:
[1] = system: McA-RH7777 cells stably expressing human apoB-100 and human apoC-III (A18-C3); format: cell-based; conditions: for effect on EPA-induced lipid degradation (CLD turnover): cells silenced, transfected or pre-treated, then EPA 0.4 mM, 6 h
Protocol: (§1) In certain non-limiting examples described herein, McA-RH7777 cells stably expressing human apoB-100 and human apoC-III (designated A18-C3) were used for the studies. […] In addition, these studies, particularly those concerning EPA- or DHA-triggered lysosomal motility and CLD degradation, were also performed using primary rat hepatocytes. Transfection of plasmids encoding proteins of interest, or transfection of siRNA specific for silencing target gene expression, was achieved using the FuGENE HP Extreme reagent (Roche). Representative gene silencing siRNA sequences, which are not meant to be limiting, are described in Table 1, and plasmids encoding proteins of interest are described in Table 2. The effectiveness of siRNA silencing was verified by Western-blotting of cellular content of the target proteins, and by intracellular localization assay using siRNA-Tracker (Mirus Bioscience). Twenty-four h after plasmid transfection, or 48 h after siRNA transfection, the cells were cultured in lipid-rich media containing fetal bovine serum (20%) and OA (0.4 mM). The lipid-laden cells were switched to fresh media supplemented with OA or EPA (0.4 mM). In live imaging experiments, LipidTOX Red (Life Technologies) and LysoTracker (Life Technologies) were added to media prior to EPA treatment, to visualize lipid droplets and lysosomes, respectively. For visualizing peroxisomes, Peroxisome-GFP (Invitrogen) was introduced to the cells 24 h prior to experiments. Quantification of cell lipid contents was achieved either by direct mass measurement (HPTLC) and counting the number of lipid droplets using Image J Lipid Droplet Counter Plug-In, or indirectly by Western blot analysis of cellular content of ADRP. Secretion of apoB and TG-rich lipoprotein was determined by Western blot analysis and metabolic labeling. Mitochondrial β-oxidation was measured using MitoSOX Red (Life Technologies) in situ. Autophagic flux was determined by using Cyto-ID assay (Enzo Life Science) and by monitoring GFP-LC3 clustering in situ. Interaction of Arl8b and subunits of the HOPS complex was determined in situ by the proximity ligation assay (Olink Biosience). Cytoplasmic pH was measured using the cytosolic pHrodo indicator reagent (Invitrogen). Live imaging of fluorescent-tagged proteins was performed 1 h post-EPA treatment. Cells were also collected at the time of EPA treatment for transmission EM and tomography, as well as immuno-EM. For movies, cells were imaged at 60 sec intervals every 5 min, for a total of 30 min.
The A18-C3 cells were cultured in DMEM (Invitrogen) supplemented with fetal bovine serum (20%), penicillin (50 U/mL), streptomycin (50 μg/mL, Invitrogen) and Geneticin/G418 (500 μg/mL, Gibco) at 37° C. in 5% CO2. Transfection was conducted when cells were 60-70% confluence. Appropriate plasmids were mixed with FuGENE HP extreme reagent (Roche Diagnostic), according to manufacturer's protocol, and incubated for 30 min. Twenty-four h after transfection, cells were switched to lipid-rich media containing OA (0.4 mM) for additional 16 h prior to imaging and biochemical analysis. In silencing experiments, appropriate siRNAs were transfected into cells using the X-treme GENE siRNA regent (Roche Diagnostic). Localization of siRNA in transfected cells in situ was carried out using the Cy5 Label IT-siRNA Tracker (Minis Bioscience #7213) according to manufacturer's protocol. Forty-eight h after transfection, cells were switched to lipid-rich media containing OA (0.4 mM) for additional 16 h prior to imaging and biochemical analysis.
Quantification of lipid droplets was carried out using confocal and differential interface contrast (DIC) microscopy. Lipid droplets were stained with LipidTOX Red (Invitrogen) before adding OA or EPA. All images were visualized using a 63× oil immersion objective lens. Z-series stacks were acquired with 0.2 μm steps. […]

[2] = system: McA-RH7777 cells (A18-C3); assay: Live imaging of lysosomal motility and lysosome-CLD interaction (kiss-and-run); format: cell-based, rat; conditions: cells silenced, transfected or pre-treated (15 min) before EPA
Protocol: as §1
Cells were grown on 35-mm glass bottom dishes (Ibidi GmbH München, Germany) for 16 h in DMEM supplemented with FBS (20%) and OA (0.4 mM). Cells were imaged using a Zeiss 510 META laser scanning confocal microscope with a heated CO2-controlled stage (5% CO2 at 37° C.). Images were captured at a frame-rate of 30 frame/sec using a 63×. N.A.1.4 objective. Recommended laser lines and filter combinations were used for each dye. For visualization of lipid droplets, lysosomes, mitochondria, and mitochondrial β-oxidation, the respective reagents LipidTOX Red (Invitrogen), LysoTracker (Life Technology), MitoTracker (Life Technology), MitoSox Red (Invitrogen), and Peroxisome-GFP BacMam2.0 (Invitrogen) were introduced into the cells, according to manufacturers' recommendations, prior to EPA treatment.
Cells were cultured with lipid-rich media containing OA (0.4 mM) for 16 h. The lipid-laden cells were switched to fresh media containing EPA (0.4 mM) for 1 h, and the lysosomal movement towards lipid droplets was recorded by time-lapse microscopy. Fluorescent intensity of lysosomal signals at the periphery of selected individual lipid droplet was measured using Image J Live Intensity Profiler Plug-in^31-33 over a period of 40 sec. Quantification for each condition was carried out for 60 individual lipid droplets from three independent experiments. Constant threshold was applied to all of the images in each experiment.

Row | Molecule | effect on EPA-induced lipid degradation (CLD turnover) [1] | effect on EPA-triggered lysosomal motility / lysosomal interaction with CLD [2] | effect on lipid degradation when co-expressed with Arl8b^WT, Arl8b^Q75L or Arl8b^T34N ([1]; co-transfected cells, 6 h post-OA or -EPA)
1 | Cl.N [NH4Cl, reference compound] | inhibited |  | 
2 | CCC/C=C/C/C=C/C=C/C=N/NN=O [Triacsin C, reference compound] | inhibited EPA-induced lipid degradation | blocked | 
3 | COC(=O)Nc1nc2ccc(C(=O)c3cccs3)cc2[nH]1 [nocodazole, reference compound] | blocked EPA-induced lipid degradation | blocks EPA-induced lysosomal movement | 
4 | B1 | adversely blocked EPA-induced lipid degradation | blocks EPA-triggered lysosomal interaction with LDs | 
5 | B2 | adversely blocked EPA-induced lipid degradation | blocks EPA-triggered lysosomal interaction with LDs | 
6 | B3 | block lipid degradation | enhanced lysosomal-CLD interaction | invariably blocks lipid degradation
